In US20090208949A1 (WISCONSIN ALUMNI RESEARCH FOUNDATION, published 2009):
Blank lines part the entries; values can stand above or below the binder they belong to. Where no end group is shown, it is not given here.

Assays:
sorting nexin 5 = target: T1, sorting nexin 5 (Homo sapiens (Human), UniProt Q9Y5X3 1-404, limits assumed); test: yeast two-hybrid screen
T1 construct: also called SNX5; Myc-SNX5
T1 sequence: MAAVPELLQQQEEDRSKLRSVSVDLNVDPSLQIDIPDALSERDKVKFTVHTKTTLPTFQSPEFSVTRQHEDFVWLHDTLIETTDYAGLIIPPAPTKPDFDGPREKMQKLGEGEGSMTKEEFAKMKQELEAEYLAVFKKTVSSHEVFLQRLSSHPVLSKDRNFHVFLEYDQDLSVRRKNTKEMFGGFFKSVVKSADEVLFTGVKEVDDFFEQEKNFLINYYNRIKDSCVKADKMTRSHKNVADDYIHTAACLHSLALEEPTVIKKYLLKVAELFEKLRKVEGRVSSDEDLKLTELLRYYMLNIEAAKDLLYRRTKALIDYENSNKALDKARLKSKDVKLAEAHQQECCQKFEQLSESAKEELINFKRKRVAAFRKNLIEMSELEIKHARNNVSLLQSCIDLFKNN

LMO4 = target: T2, LMO4 (Homo sapiens (Human), UniProt P61968 1-165); test: yeast two-hybrid screen
T2 sequence: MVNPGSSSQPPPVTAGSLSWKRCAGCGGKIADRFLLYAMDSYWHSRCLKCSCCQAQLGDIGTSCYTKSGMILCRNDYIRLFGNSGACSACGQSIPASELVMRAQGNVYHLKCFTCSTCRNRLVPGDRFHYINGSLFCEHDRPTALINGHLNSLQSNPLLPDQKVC

- binding result (sorting nexin 5): binds
B1: C-terminus of the PIPKIγ 707 splice variant (other)
chain: FTDGRYWIYSPRHRRLRAVTLSASGTVSDRSRPPWGEGAVPLGQQGAAGPRPEAQCLTSVVFQKGFG
notes: Yeast two-hybrid bait

- binding result (LMO4): binds
B2: C-terminus of the PIPKIγ 700 variant (other)
chain: WRLWGPHAPTWPWRREGRAACLCPYPPHVVTPFPGTGLCASWSPDGTGGLGAMSCCVSVS
modifications: not fully specified; cysteine pairing not given here
notes: Yeast two-hybrid bait
